For the assay, the target named is SARS-CoV-2 S2P spike (SARS-CoV-2, ancestral spike (P0DTC2 …, stabilised)). Put plainly: cryo-EM structure.

This is an account of results in paper PMC8519878 (Cell Reports, 2021).

As a reminder, the stoichiometry N is a count of units in the complex or per binding partner.

B1: antigen-binding fragment (Fab) of antibody 5-7, expressed as Fab (Fab, V domains shown)
VH: QVQLVQSGAEVKKPGASVKVSCKASGYTFTSYYMHWVRQAPGQGLEWMGVINPSGGSTSYAEKFRGRVTMTRDTSTSTVYMELSSLRSEDTAVYYCARDREPHSDSSGYWDSLKYYYYYALDVWGQGTTVTVSS
VL: AIQLTQSPSSLSASVGDRVTITCRASQGISSYLAWYQQKPGKAPELLIYAASTLQSGVPSRFSGSGSGTDFTLTISSLQPEDFATYYCQQLNTYPFTFGPGTKVDIK
In the case of B1, the “stoichiometry N” value turned out to be 3 Fabs per trimer.
